In patent US20210155687A1 (published 2021) one finds Kd data, which are given here for 1 molecule.

For experiment [1], the target named is T1, Human OSM (human).
T1 chain: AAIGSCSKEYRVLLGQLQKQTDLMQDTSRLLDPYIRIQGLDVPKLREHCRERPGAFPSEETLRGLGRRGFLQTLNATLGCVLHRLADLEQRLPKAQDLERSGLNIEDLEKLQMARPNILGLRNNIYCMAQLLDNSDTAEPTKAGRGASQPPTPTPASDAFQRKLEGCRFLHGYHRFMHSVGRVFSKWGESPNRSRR
As to the kind of experiment: in vivo affinity estimated from FTIH PK/PD data (rounded restatement of the TMDD estimate).

In experiment [2] the target is T1, Human OSM. As to the kind of experiment: in vivo affinity in serum, estimated with a TMDD model (one-compartment PK plus binding kinetics) from free and total OSM levels in the single ascending dose FTIH study.

Broadly, the Kd is the equilibrium constant for the complex coming apart.

B1: mab 1 (antibody)
heavy: SYAMS
light: EVQLVESGGGLVQPGGSLRLSCAASGFTFSSYAMSWVRQAPGKGLEWVATISDGGSFTYYLDNVRGRFTISRDNAKNSLYLQMNSLRAEDTAVYYCARDVGHTTFWYFDVWGRGTLVTVSS
notes: Humanised anti-OSM antibody derived from murine 10G8; also called humanised mab 1 derived from 10G8; Mature H0 (IGHV3_23 CDRH1) heavy chain with Mature L1 light chain
B1: the results for the Kd in the experiment with Human OSM [1] and in the experiment with Human OSM [2] were approximately 0.6 nM and 0.568 nM, respectively.
